Assay results reported in the supplement of paper PMC9112550, “Optimization of the antimicrobial peptide Bac7 by deep mutational scanning” (BMC Biology, 2022).

tested on: Escherichia coli TOP10; assay: shrunken log2 fold change of peptide-encoding DNA abundance (4.5 h post-induction vs induction); higher = less antimicrobial activity (less host growth inhibition); conditions: time post-induction: 4.5 h; library: site-saturation at positions 5, 18, 19, 20
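Note: peptides expressed intracellularly from a pBAD plasmid library in pooled LB shake-flask culture, induced with 0.3% L-arabinose, DNA abundance read by NGS, three biological replicates, DESeq2 with apeglm shrinkage.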

Sequence | shrunken log2 fold change
RRIRKRPPRLPRPRPRPHWIPRP | -0.0313
RRIRHRPPRLPRPRPRPQYGPRP | -0.0192
RRIRDRPPRLPRPRPRPVWEPRP | 0.0337
RRIRHRPPRLPRPRPRPEDRPRP | -0.0767
RRIRYRPPRLPRPRPRPQHYPRP | -0.466
RRIRNRPPRLPRPRPRPPAAPRP | 0.676
RRIRVRPPRLPRPRPRPQNQPRP | -0.388
RRIRDRPPRLPRPRPRPPIQPRP | 0.242
RRIRNRPPRLPRPRPRPPQIPRP | 0.013
RRIRWRPPRLPRPRPRPVCGPRP | 0.649
RRIRIRPPRLPRPRPRPILVPRP | 0.0273
RRIRSRPPRLPRPRPRPTIQPRP | -0.305
RRIRQRPPRLPRPRPRPDVCPRP | 0.13
RRIRIRPPRLPRPRPRPTQQPRP | 0.0936
RRIRFRPPRLPRPRPRPMIKPRP | -0.749
RRIRLRPPRLPRPRPRPYGCPRP | -0.318
RRIRSRPPRLPRPRPRPVRFPRP | 0.488
RRIRNRPPRLPRPRPRPAMDPRP | 0.166
RRIRRRPPRLPRPRPRPKYNPRP | -0.384
RRIRERPPRLPRPRPRPQLTPRP | -0.576
RRIRYRPPRLPRPRPRPTCCPRP | -0.194

Sequence | shrunken log2 fold change
RRIRRRPPRLPRPRPRPMFWPRP | 0.506
RRIRRRPPRLPRPRPRPFNAPRP | -0.0138
RRIRKRPPRLPRPRPRPGCGPRP | 0.761
RRIRTRPPRLPRPRPRPMMCPRP | -0.59
RRIRFRPPRLPRPRPRPTDFPRP | -0.302
RRIRARPPRLPRPRPRPIEIPRP | 0.0613
RRIRRRPPRLPRPRPRPQPMPRP | 0.606
RRIRSRPPRLPRPRPRPFSGPRP | -0.134
RRIRSRPPRLPRPRPRPQDKPRP | -0.0231
RRIRHRPPRLPRPRPRPYNSPRP | 0.0224
RRIRKRPPRLPRPRPRPTFKPRP | 0.0344
RRIRVRPPRLPRPRPRPRGIPRP | 0.235
RRIRIRPPRLPRPRPRPDGWPRP | -0.279
RRIRVRPPRLPRPRPRPHIMPRP | -0.339
RRIRQRPPRLPRPRPRPGCQPRP | -0.103
RRIRMRPPRLPRPRPRPADQPRP | -0.0145
RRIRMRPPRLPRPRPRPCVPPRP | 0.209
RRIRTRPPRLPRPRPRPSGHPRP | -0.17
RRIRRRPPRLPRPRPRPIYEPRP | 0.0785
RRIRNRPPRLPRPRPRPTQPPRP | 0.6
RRIRERPPRLPRPRPRPNSYPRP | -0.433

Sequence | shrunken log2 fold change
RRIRARPPRLPRPRPRPKYVPRP | -0.145
RRIRWRPPRLPRPRPRPPMSPRP | 0.095
RRIRRRPPRLPRPRPRPHSAPRP | 0.0905
RRIRIRPPRLPRPRPRPTWYPRP | -0.668
RRIRNRPPRLPRPRPRPNRTPRP | -0.0201
RRIRLRPPRLPRPRPRPLKVPRP | -0.0503
RRIRGRPPRLPRPRPRPCDLPRP | 0.0268
RRIRQRPPRLPRPRPRPCADPRP | -0.116
RRIRMRPPRLPRPRPRPRVRPRP | 0.921
RRIRTRPPRLPRPRPRPPIWPRP | 0.477
RRIRPRPPRLPRPRPRPHHWPRP | -0.103
RRIRCRPPRLPRPRPRPMSTPRP | -0.0888
RRIRTRPPRLPRPRPRPFGAPRP | 0.334
RRIRKRPPRLPRPRPRPYYEPRP | -0.493
RRIRKRPPRLPRPRPRPHEWPRP | 0.3
RRIRVRPPRLPRPRPRPMEFPRP | -0.03
RRIRVRPPRLPRPRPRPVEYPRP | -1.63
RRIRWRPPRLPRPRPRPQIQPRP | -0.0544
RRIRMRPPRLPRPRPRPRPSPRP | 1.12
RRIRSRPPRLPRPRPRPHSVPRP | -0.036
RRIRHRPPRLPRPRPRPCKVPRP | -0.0825
